From the Immune Epitope Database (IEDB)

Tests used:
HLA-B*35:01 = assay: IEDB peptide-MHC binding, purified MHC/competitive/radioactivity; filed as Kd, often an IC50 or EC50 that approximates it; ≥ and ≤ were set here for values at or beyond the usual limits of such assays
HLA-B*07:02 [1] = assay: as above
HLA-A*11:01 [2] = assay: IEDB peptide-MHC binding, purified MHC/competitive/fluorescence; ≥ and ≤ were set here for values at or beyond the usual limits of such assays
HLA-A*68:02 = assay: IEDB peptide-MHC binding, purified MHC/competitive/radioactivity; filed as Kd, often an IC50 or EC50 that approximates it; ≥ and ≤ were set here for values at or beyond the usual limits of such assays
HLA-A*02:06 = assay: as above
HLA-A*68:01 = assay: as above; details: source organism: Dengue virus 2 Peru/IQT2913/1996
HLA-B*08:01 [3] = assay: as above
HLA-A*33:01 = assay: as above; details: source organism: Dengue virus 2 Peru/IQT2913/1996
HLA-A*03:01 [4] = assay: as above; details: source organism: Dengue virus 2 Peru/IQT2913/1996
HLA-A*31:01 = assay: as above; details: source organism: Dengue virus 2 Peru/IQT2913/1996
HLA-B*53:01 = assay: as above; details: source organism: Dengue virus 3 Martinique/1243/1999
HLA-B*51:01 [5] = assay: as above
HLA-B*51:01 [6] = assay: IEDB peptide-MHC binding, purified MHC/competitive/fluorescence; filed as Kd, often an IC50 or EC50 that approximates it; ≥ and ≤ were set here for values at or beyond the usual limits of such assays; details: source organism: Yersinia pestis Nepal516
HLA-A*03:01 [7] = assay: as above
HLA-B*08:01 [8] = assay: IEDB peptide-MHC binding, purified MHC/direct/fluorescence; filed as Kd, often an IC50 or EC50 that approximates it; ≥ and ≤ were set here for values at or beyond the usual limits of such assays; details: source organism: SARS-CoV1
HLA-A*11:01 [9] = assay: as above; details: source organism: SARS-CoV1
HLA-B*07:02 [10] = assay: as above; details: source organism: SARS-CoV1
HLA-A*02:01 [11] = assay: IEDB peptide-MHC binding, purified MHC/competitive/radioactivity; filed as Kd, often an IC50 or EC50 that approximates it; ≥ and ≤ were set here for values at or beyond the usual limits of such assays
HLA-A*02:02 = assay: as above; details: source organism: Trypanosoma cruzi
HLA-A*02:03 = assay: as above; details: source organism: Trypanosoma cruzi
HLA-A*24:02 = assay: IEDB peptide-MHC binding, purified MHC/competitive/fluorescence; ≥ and ≤ were set here for values at or beyond the usual limits of such assays; details: source organism: Zaire ebolavirus
HLA-A*02:01 [12] = assay: as above; details: source organism: Zaire ebolavirus
HLA-A*24:03 = assay: IEDB peptide-MHC binding, purified MHC/direct/fluorescence; filed as Kd, often an IC50 or EC50 that approximates it; ≥ and ≤ were set here for values at or beyond the usual limits of such assays; details: source organism: Mycobacterium tuberculosis variant bovis
HLA-B*27:05 = assay: as above; details: source organism: SARS-CoV1
[13] = source organism: Dengue virus 3 Martinique/1243/1999
[14] = source organism: Sudan ebolavirus
[15] = source organism: Dengue virus 4 Philippines/H241/1956
[16] = source organism: Vaccinia virus WR
[17] = source organism: Dengue virus 1 Brazil/97-11/1997
[18] = source organism: Dengue virus 2 Jamaica/1409/1983
[19] = source organism: Trypanosoma cruzi
[20] = source organism: Zaire ebolavirus

LPWTSGATT
Kd (HLA-B*35:01; [13]): 1300 nM | Kd (HLA-B*07:02 [1]; [13]): 25.8 nM

LSNTTGRLI
IC50 (HLA-A*11:01 [2]; [14]): 55500 nM

LVMLLVHYAI
Kd (HLA-A*68:02; [15]): 1260 nM | Kd (HLA-A*02:06; [15]): 151 nM

MLINRFTMR
Kd (HLA-A*68:01): 17.7 nM | Kd (HLA-B*08:01 [3]; source organism: Dengue virus 2 Peru/IQT2913/1996): 906 nM | Kd (HLA-A*33:01): 20.4 nM | Kd (HLA-A*03:01 [4]): 57 nM | Kd (HLA-A*31:01): 4.29 nM

MPSMKRFRKE
Kd (HLA-B*53:01): 10900 nM | Kd (HLA-B*51:01 [5]; [13]): ≥ 69600 nM | Kd (HLA-B*35:01; [13]): 14000 nM

MQSLKFNRA
Kd (HLA-B*08:01 [3]; [16]): 307 nM

MTCIAVGMV
Kd (HLA-A*68:02; [17]): 7.63 nM

MTYLPAWQV
Kd (HLA-B*51:01 [6]): ≥ 20000 nM

MVYKLWFKY
Kd (HLA-A*03:01 [7]; source organism: Entamoeba dispar SAW760): 14100 nM

NKKRFFSDV
Kd (HLA-B*08:01 [3]; [16]): 8720 nM

NNSWKFNSE
Kd (HLA-B*08:01 [3]; [16]): 129 nM

NPKTPKYKF
Kd (HLA-B*08:01 [8]): 1150 nM | Kd (HLA-A*11:01 [9]): 3960 nM | Kd (HLA-B*07:02 [10]): ≥ 28600 nM

PENITTAVK
IC50 (HLA-A*11:01 [2]; [14]): ≥ 178000 nM

PPFGESYIV
Kd (HLA-B*51:01 [5]; [17]): 9840 nM

PRRCLKPVIL
Kd (HLA-B*08:01 [3]; [17]): 2720 nM

QLKDKADFCI
Kd (HLA-A*68:02; source organism: Homo sapiens): 13400 nM | Kd (HLA-A*02:06; source organism: Homo sapiens): ≥ 32100 nM

RAAGLQDCT
Kd (HLA-A*02:01 [11]; source organism: Hepatitis C virus (isolate 1)): ≥ 50000 nM

RKNGKKVIQL
Kd (HLA-B*08:01 [3]; [18]): 161 nM

RPISEKEENM
Kd (HLA-B*35:01; [13]): 502 nM | Kd (HLA-B*07:02 [1]; [13]): 135 nM

RVSRPTTVV
Kd (HLA-A*02:02): 6200 nM | Kd (HLA-A*68:02; [19]): 200 nM | Kd (HLA-A*02:06; [19]): 1340 nM | Kd (HLA-A*02:03): 105 nM

SEKMRRERA
Kd (HLA-B*08:01 [3]; [16]): 169 nM

SLNRNFTLV
Kd (HLA-A*02:02): 0.143 nM | Kd (HLA-A*68:02; [19]): 227 nM | Kd (HLA-A*02:06; [19]): 0.69 nM | Kd (HLA-A*02:03): 0.0957 nM | Kd (HLA-A*02:01 [11]; [19]): 23.6 nM

SRFTPQFLL
IC50 (HLA-A*24:02): 1730 nM | IC50 (HLA-A*11:01 [2]; [20]): 45400 nM | IC50 (HLA-A*02:01 [12]): ≥ 106000 nM

SSTSRFVMF
Kd (HLA-B*08:01 [3]; [16]): 1100 nM

SVYGLMGFK
Kd (HLA-A*03:01 [7]; source organism: Myxoma virus): 9.2 nM

SYYPDQKSL
Kd (HLA-A*24:03): 8.4 nM

TALTGATEI
Kd (HLA-B*51:01 [5]; [18]): 623 nM

THNTPVYKL
IC50 (HLA-A*24:02): 17600 nM | IC50 (HLA-A*11:01 [2]; [20]): 62400 nM | IC50 (HLA-A*02:01 [12]): ≥ 735000 nM

TKTTAKEVAL
Kd (HLA-B*08:01 [3]; source organism: Dengue virus 4 Dominica/814669/1981): 4000 nM

TLTSDDLLI
Kd (HLA-A*02:01 [11]; source organism: Lassa virus Josiah): 4170 nM

TPPGATDPF
Kd (HLA-B*35:01; [15]): 132 nM | Kd (HLA-B*07:02 [1]; [15]): 1070 nM

TVHADTGCAV
Kd (HLA-A*68:02; [15]): 86.1 nM

VLDQIDKNK
IC50 (HLA-A*11:01 [2]; [16]): ≥ 71200 nM

VPNYNMIIM
Kd (HLA-B*51:01 [5]; [17]): 879 nM | Kd (HLA-B*35:01; [17]): 13.5 nM | Kd (HLA-B*07:02 [1]; [17]): 54 nM

YRYLRHGKL
Kd (HLA-B*08:01 [8]): 104 nM | Kd (HLA-B*27:05): 78.6 nM

YSFSMFMSL
Kd (HLA-B*08:01 [3]; [16]): 146 nM
